Results from article PMC8291764.

How the values were obtained:
Kohinoor = experiment: SEC; purified protein diluted to 10 μM, equilibrated at 6 °C overnight; 250 μL on Superdex 200 Increase 10/300 GL, run at 6 °C, 0.75 mL/min, absorption at 280 nm; elution volumes compared with tetrameric DsRed, dimeric dTomato and monomeric mEGFP
Padron = experiment: as above

| Substance | stoichiometry N (Kohinoor) | stoichiometry N (Padron) |
| --- | --- | --- |
| Kohinoor | 2 | – |
| Padron | – | 4 |
